From paper PMC11128199 (JCI Insight, 2024)

Target: T1, stabilized SARS-CoV-2 Omicron S ECD HexaPro (SARS-CoV-2 Omicron BA.1, stabilised)
T1 construct: also called prefusion Omicron BA.1 S trimer; BA.1 S
Experiment: cryo-EM structure
Details: both partners purified

B1: 58G6 Fab (Fab, V domains shown)
VH: QMQLVQSGPEVKKPGTSVKVSCKASGFTFSSSAVQWVRQARGQHLEWIGWIVVGSGNTNYAQKFQERVTLTRDMSTRTAYMELSSLRSEDTAVYYCAAPNCNSTTCHDGFDIWGQGTVVTVSS
VL: EIVLTQSPGTLSLSPGERATLSCRASQSVRSSYLGWYQQKPGQAPRLLIYGASSRATGIPDRFSGSGSGTDFTLTISRLESEDFAVYYCQQYDNSPWTFGQGTKVEIK
B1 was tested, and the “stoichiometry N” value was 1 Fabs per S trimer.
